Results reported in patent US20020192796A1.

Target: HP1032 protein, sigma28 factor of RNA polymerase (FliA) of Helicobacter pylori (Helicobacter pylori strain 26695)
Test: cell-based or functional assay

Substance: HP1122 protein, anti-sigma28 factor (FlgM) of Helicobacter pylori
- flaA mRNA, RNA slot blot hybridization, HP1122-inactivated strain against wild type: 2.5 fold
- fold decrease in flaA mRNA, RNA slot blot hybridization, HP1122-overexpressing N6 strain against wild type: 2 fold
